Test results: patent US5654179A, “Nucleic acid preparation methods” (HRI Research, Inc., priority 1994, dated 1997)

B1: rat transferrin: transferrin from rat (protein, UniProt P12346 20-698, looked up)
Serotransferrin: VPDKTVKWCAVSEHENTKCISFRDHMKTVLPADGPRLACVKKTSYQDCIKAISGGEADAITLDGGWVYDAGLTPNNLKPVAAEFYGSLEHPQTHYLAVAVVKKGTDFQLNQLQGKKSCHTGLGRSAGWIIPIGLLFCNLPEPRKPLEKAVASFFSGSCVPCADPVAFPQLCQLCPGCGCSPTQPFFGYVGAFKCLRDGGGDVAFVKHTTIFEVLPQKADRDQYELLCLDNTRKPVDQYEDCYLARIPSHAVVARNGDGKEDLIWEILKVAQEHFGKGKSKDFQLFGSPLGKDLLFKDSAFGLLRVPPRMDYRLYLGHSYVTAIRNQREGVCPEGSIDSAPVKWCALSHQERAKCDEWSVSSNGQIECESAESTEDCIDKIVNGEADAMSLDGGHAYIAGQCGLVPVMAENYDISSCTNPQSDVFPKGYYAVAVVKASDSSINWNNLKGKKSCHTGVDRTAGWNIPMGLLFSRINHCKFDEFFSQGCAPGYKKNSTLCDLCIGPAKCAPNNREGYNGYTGAFQCLVEKGDVAFVKHQTVLENTNGKNTAAWAKDLKQEDFQLLCPDGTKKPVTEFATCHLAQAPNHVVVSRKEKAARVSTVLTAQKDLFWKGDKDCTGNFCLFRSSTKDLLFRDDTKCLTKLPEGTTYEEYLGAEYLQAVGNIRKCSTSRLLEACTFHKS
B2: Bovine Transferrin: bovine transferrin (protein, UniProt Q29443 20-704, looked up)
Serotransferrin: DPERTVRWCTISTHEANKCASFRENVLRILESGPFVSCVKKTSHMDCIKAISNNEADAVTLDGGLVYEAGLKPNNLKPVVAEFHGTKDNPQTHYYAVAVVKKDTDFKLNELRGKKSCHTGLGRSAGWNIPMAKLYKELPDPQESIQRAAANFFSASCVPCADQSSFPKLCQLCAGKGTDKCACSNHEPYFGYSGAFKCLMEGAGDVAFVKHSTVFDNLPNPEDRKNYELLCGDNTRKSVDDYQECYLAMVPSHAVVARTVGGKEDVIWELLNHAQEHFGKDKPDNFQLFQSPHGKDLLFKDSADGFLKIPSKMDFELYLGYEYVTALQNLRESKPPDSSKDECMVKWCAIGHQERTKCDRWSGFSGGAIECETAENTEECIAKIMKGEADAMSLDGGYLYIAGKCGLVPVLAENYKTEGESCKNTPEKGYLAVAVVKTSDANINWNNLKDKKSCHTAVDRTAGWNIPMGLLYSKINNCKFDEFFSAGCAPGSPRNSSLCALCIGSEKGTGKECVPNSNERYYGYTGAFRCLVEKGDVAFVKDQTVIQNTDGNNNEAWAKNLKKENFEVLCKDGTRKPVTDAENCHLARGPNHAVVSRKDKATCVEKILNKQQDDFGKSVTDCTSNFCLFQSNSKDLLFRDDTKCLASIAKKTYDSYLGDDYVRAMTNLRQCSTSKLLEACTFHKP

What was measured:
[1] = system: Taq polymerase; test: HIV PCR after inhibitor treatment of whole blood lysate; type: biochemical; settings: with cofactor sodium bicarbonate
Experimental: The enzyme was inactivated by heating (95°-100° C., 10 minutes).

[2] = system: Taq polymerase; test: Mode III whole blood, globin PCR (KM-29/HRI-12) with inhibitor treatment; type: biochemical; settings: 250 μg bovine transferrin, 10 mM sodium bicarbonate; 25,000 to 0 cells; no product without treatment
Experimental: Generally, PCR was carried out using 175-200 μM dNTPS (deoxyribonucleoside 5'-triphosphates) and 0.5 to 1.0 μM primers. Five units/100 μl of Taq polymerase were used. PCR reactions were overlaid with 30-100 μl light mineral oil. A typical PCR cycle for HIV amplification using a Perkin-Elmer Cetus DNA Thermal Cycler (Part No. N8010150) was: denaturation at 95° C. for 30 seconds; annealing at 55° C. for 30 seconds; and extension at 72° C. for 1 minute. PCR cycles were normally carried out in this manner for 35 cycles followed by 7 minutes at 72° C.
In one case, amplification of globin sequences was performed using primer pair KM-29 (SEQ ID NO:10)and HRI-12 (SEQ ID NO:11) to give a 174 bp product within the human beta globin gene.
Whole blood samples were lysed with protease K (500 μg/ml, 55° C. for 1 hour). The enzyme was inactivated by heating (95°-100°C., 10 minutes). Aliquots corresponding to 25,000, 10,000, 5,000, 2,000, 1000, 500 and 0 cells were made. Bovine transferrin (250 μg) was added to each sample as well as the cofactor sodium bicarbonate (adjusted to 10 mM) and the reaction was incubated at room temperature for 30 minutes. Concentrated PCR reagents were then added to each sample to a final volume of 100 μl. […]

| Molecule | activity as interfering reagent [1] | globin PCR product after inhibitor treatment [2] |
| --- | --- | --- |
| B1 | does not work as an interfering reagent | – |
| B2 | – | decreasing product band corresponding to the decreasing amount of cells |
